Measurements published in paper PMC12668182.

Experiments:
[1] = target: HaloTag-CSB, full length, JaneliaFluor-labelled (human) (UniProt Q03468); experiment: single-molecule fluorescence on tethered DNA (SMADNE, LUMICKS C-Trap); oligomerisation state of HaloTag-CSB (photon counts) in events colocalised with SNM1A on lambda dsDNA; DNA present
[2] = target: HaloTag-CSB, full length, JaneliaFluor-labelled (human) (UniProt Q03468); experiment: single-molecule fluorescence on tethered DNA (SMADNE, LUMICKS C-Trap); oligomerisation state of HaloTag-CSB (photon counts) at the site-specific ICL repair intermediate, alone or colocalised with SNM1A; DNA present
[3] = target: HaloTag-CSB, full length, JaneliaFluor-labelled (human) (UniProt Q03468); experiment: single-molecule fluorescence on tethered DNA (SMADNE, LUMICKS C-Trap); two-colour HaloTag-CSB nuclear extracts (JF552 and JF635) on lambda dsDNA; colocalisation and photon counts; 20 mM HEPES pH 7.5, 10% glycerol, 1 mM DTT, 1 mM MgCl2; 30 C; DNA present
[4] = system: HaloTag-CSB full-length (nuclear extract, SMADNE);HaloTag-SNM1A catalytic domain; experiment: single-molecule (optical tweezers C-Trap); settings: EMSA: 20 mM HEPES-KOH pH 7.5, 50 mM KCl, 0.05% Triton X-100, 0.5 mM TCEP, 5% glycerol, 1 nM oligo, 4 C, C-Trap: 20 mM HEPES pH 7.5, 10% glycerol, 1 mM DTT
[5] = system: HaloTag-SNM1A catalytic domain; experiment: single-molecule (optical tweezers C-Trap); settings: EMSA: 20 mM HEPES-KOH pH 7.5, 50 mM KCl, 0.05% Triton X-100, 0.5 mM TCEP, 5% glycerol, 1 nM oligo, 4 C, C-Trap: 20 mM HEPES pH 7.5, 10% glycerol, 1 mM DTT
[6] = target: full-length CSB (ERCC6), wild type, recombinant (human) (UniProt Q03468); experiment: SEC; purification of full-length CSB alone on Superdex S200; retention volume compared with calibration curves; 50 mM HEPES pH 8, 300 mM NaCl, 1 mM TCEP; monomer to dimer
[7] = system: HaloTag-CSB full-length (nuclear extract, SMADNE); experiment: single-molecule (SMADNE, optical tweezers C-Trap); settings: EMSA: 20 mM HEPES-KOH pH 7.5, 50 mM KCl, 0.05% Triton X-100, 0.5 mM TCEP, 5% glycerol, 1 nM oligo, 4 C, C-Trap: 20 mM HEPES pH 7.5, 10% glycerol, 1 mM DTT
[8] = triazole click ICL (azide-C6-amino-dA x octadiynyl-dU), 5'P flap

HaloTag-CSB, full length, JaneliaFluor-labelled (from UniProt Q03468 1-1493) (natural protein)
percent of CSB:SNM1A colocalisation events on lambda DNA in which CSB was a dimer [1]: 73% | percent of CSB events at the ICL repair intermediate that were dimeric [2]: 78% | percent of SNM1A:CSB events on ICL repair intermediates with dimeric CSB [2]: 90% | percent of CSB binding events on lambda DNA that were dimeric [3]: 35% | percent of single colour tracks in which a dimeric CSB bound to DNA [3]: 20%

ICL flap repair intermediate (C-Trap)
Kd [4, 8]: 45 nM | Kd [5, 8]: 355 nM

full-length CSB (ERCC6), wild type, recombinant (from UniProt Q03468 1-1493) (natural protein)
stoichiometry N [6]: 2

lambda DNA (undamaged)
Kd [7]: 1.2 nM | Kd [4]: 17.5 nM | Kd [5]: 21.8 nM
